# Laboratory results taken from paper PMC9504514, “Identification of a Potential Inhibitor (MCULE-8777613195-0-12) of New Delhi Metallo-β-Lactamase-1 (NDM-1) Using In Silico and In Vitro Approaches” (Molecules, 2022).
# Experiments:
# [1] = test system: CO/N=C(\C(=O)N[C@@H]1C(=O)N2C(C(=O)O)=C(COC(C)=O)CS[C@H]12)c1csc(N)n1; assay: steady-state hydrolysis kinetics (Km) with purified NDM-1; type: biochemical, Klebsiella pneumoniae; details: Zn2+ (two zinc ions)
# [2] = test system: C[C@@H](O)[C@H]1C(=O)N2C(C(=O)O)=C(S[C@@H]3CN[C@H](C(=O)N(C)C)C3)[C@H](C)[C@H]12; assay: as above; type: biochemical, Klebsiella pneumoniae; details: Zn2+ (two zinc ions) substrate binding site (docking)
# [3] = test system: CC1(C)S[C@@H]2[C@H](NC(=O)[C@H](N)c3ccccc3)C(=O)N2[C@H]1C(=O)O; assay: as above; type: biochemical, Klebsiella pneumoniae; details: Zn2+ (two zinc ions)
# [4] = test system: C[C@@H](O)[C@H]1C(=O)N2C(C(=O)O)=C(SCCN=CN)C[C@H]12; assay: as above; type: biochemical, Klebsiella pneumoniae; details: Zn2+ (two zinc ions)
# [5] = biological target: T1, New Delhi metallo-β-lactamase-1 (NDM-1) (Klebsiella pneumoniae, UniProt C7C422); assay: as above; type: biochemical
# T1 construct: gene blaNDM-1
# T1 sequence (C7C422 29-270 limits assumed): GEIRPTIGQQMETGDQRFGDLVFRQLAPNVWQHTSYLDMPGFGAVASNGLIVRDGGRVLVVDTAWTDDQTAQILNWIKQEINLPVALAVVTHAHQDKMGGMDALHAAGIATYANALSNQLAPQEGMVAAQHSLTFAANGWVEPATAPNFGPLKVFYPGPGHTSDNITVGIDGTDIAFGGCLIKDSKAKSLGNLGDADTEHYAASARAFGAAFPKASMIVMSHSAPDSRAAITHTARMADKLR
# [6] = biological target: T1, New Delhi metallo-β-lactamase-1 (NDM-1); assay: biochemical
compound,measurement,setting,value
New Delhi metallo-β-lactamase-1 (NDM-1) (Klebsiella pneumoniae),Km,[1],61.6 ± 5.8 µM
same,kcat,[1],413 ± 28.1 s⁻¹
same,kcat/Km,[1],6.7e+06 ± 270000 M⁻¹ s⁻¹
same,Km,[2],58.3 ± 5.2 µM
same,kcat,[2],301 ± 11.9 s⁻¹
same,kcat/Km,[2],5.17e+06 ± 330000 M⁻¹ s⁻¹
same,Km,[3],99.4 ± 7.6 µM
same,kcat,[3],392 ± 25.7 s⁻¹
same,kcat/Km,[3],3.94e+06 ± 140000 M⁻¹ s⁻¹
same,Km,[4],83.9 ± 6.7 µM
same,kcat,[4],700 ± 18.7 s⁻¹
same,kcat/Km,[4],8.34e+06 ± 640000 M⁻¹ s⁻¹
O=C(Cc1cccs1)N[C@@H]1C(=O)N2C(C(=O)O)=C(/C=C/c3ccc([N+](=O)[O-])cc3[N+](=O)[O-])CS[C@H]12 [nitrocefin],Km,[5],27.1 ± 2.1 µM
"N#CC1=Cc2ccccc2[C@@H]2NN3C(C#N)=Cc4ccccc4[C@@H]3NN12 [MCULE-8777613195-0-12, [3R,14R]-1,2,12,13-tetrazapentacyclo [12.8.0.03,12.04,9.015,20]docosa-4,6,8,10,15,17,19,21-octaene-11,22-dicarbonitrile]",IC50,[6],54.2 ± 6.3 µM
